Measured values taken from IntAct's records for PubMed 23135401.

Experiments:
pcd15_mouse Pcdh15 = pcd15_mouse Pcdh15 (UniProt Q99PJ1)
Cdh23, Q99PF4-1 [1] = biological target: Cdh23, Q99PF4-1
Cdh23, Q99PF4-1 [2] = biological target: Cdh23, Q99PF4-1; remark: listed apart in the source

Cdh23, Q99PF4-1, sequence (Q99PF4 whole entry): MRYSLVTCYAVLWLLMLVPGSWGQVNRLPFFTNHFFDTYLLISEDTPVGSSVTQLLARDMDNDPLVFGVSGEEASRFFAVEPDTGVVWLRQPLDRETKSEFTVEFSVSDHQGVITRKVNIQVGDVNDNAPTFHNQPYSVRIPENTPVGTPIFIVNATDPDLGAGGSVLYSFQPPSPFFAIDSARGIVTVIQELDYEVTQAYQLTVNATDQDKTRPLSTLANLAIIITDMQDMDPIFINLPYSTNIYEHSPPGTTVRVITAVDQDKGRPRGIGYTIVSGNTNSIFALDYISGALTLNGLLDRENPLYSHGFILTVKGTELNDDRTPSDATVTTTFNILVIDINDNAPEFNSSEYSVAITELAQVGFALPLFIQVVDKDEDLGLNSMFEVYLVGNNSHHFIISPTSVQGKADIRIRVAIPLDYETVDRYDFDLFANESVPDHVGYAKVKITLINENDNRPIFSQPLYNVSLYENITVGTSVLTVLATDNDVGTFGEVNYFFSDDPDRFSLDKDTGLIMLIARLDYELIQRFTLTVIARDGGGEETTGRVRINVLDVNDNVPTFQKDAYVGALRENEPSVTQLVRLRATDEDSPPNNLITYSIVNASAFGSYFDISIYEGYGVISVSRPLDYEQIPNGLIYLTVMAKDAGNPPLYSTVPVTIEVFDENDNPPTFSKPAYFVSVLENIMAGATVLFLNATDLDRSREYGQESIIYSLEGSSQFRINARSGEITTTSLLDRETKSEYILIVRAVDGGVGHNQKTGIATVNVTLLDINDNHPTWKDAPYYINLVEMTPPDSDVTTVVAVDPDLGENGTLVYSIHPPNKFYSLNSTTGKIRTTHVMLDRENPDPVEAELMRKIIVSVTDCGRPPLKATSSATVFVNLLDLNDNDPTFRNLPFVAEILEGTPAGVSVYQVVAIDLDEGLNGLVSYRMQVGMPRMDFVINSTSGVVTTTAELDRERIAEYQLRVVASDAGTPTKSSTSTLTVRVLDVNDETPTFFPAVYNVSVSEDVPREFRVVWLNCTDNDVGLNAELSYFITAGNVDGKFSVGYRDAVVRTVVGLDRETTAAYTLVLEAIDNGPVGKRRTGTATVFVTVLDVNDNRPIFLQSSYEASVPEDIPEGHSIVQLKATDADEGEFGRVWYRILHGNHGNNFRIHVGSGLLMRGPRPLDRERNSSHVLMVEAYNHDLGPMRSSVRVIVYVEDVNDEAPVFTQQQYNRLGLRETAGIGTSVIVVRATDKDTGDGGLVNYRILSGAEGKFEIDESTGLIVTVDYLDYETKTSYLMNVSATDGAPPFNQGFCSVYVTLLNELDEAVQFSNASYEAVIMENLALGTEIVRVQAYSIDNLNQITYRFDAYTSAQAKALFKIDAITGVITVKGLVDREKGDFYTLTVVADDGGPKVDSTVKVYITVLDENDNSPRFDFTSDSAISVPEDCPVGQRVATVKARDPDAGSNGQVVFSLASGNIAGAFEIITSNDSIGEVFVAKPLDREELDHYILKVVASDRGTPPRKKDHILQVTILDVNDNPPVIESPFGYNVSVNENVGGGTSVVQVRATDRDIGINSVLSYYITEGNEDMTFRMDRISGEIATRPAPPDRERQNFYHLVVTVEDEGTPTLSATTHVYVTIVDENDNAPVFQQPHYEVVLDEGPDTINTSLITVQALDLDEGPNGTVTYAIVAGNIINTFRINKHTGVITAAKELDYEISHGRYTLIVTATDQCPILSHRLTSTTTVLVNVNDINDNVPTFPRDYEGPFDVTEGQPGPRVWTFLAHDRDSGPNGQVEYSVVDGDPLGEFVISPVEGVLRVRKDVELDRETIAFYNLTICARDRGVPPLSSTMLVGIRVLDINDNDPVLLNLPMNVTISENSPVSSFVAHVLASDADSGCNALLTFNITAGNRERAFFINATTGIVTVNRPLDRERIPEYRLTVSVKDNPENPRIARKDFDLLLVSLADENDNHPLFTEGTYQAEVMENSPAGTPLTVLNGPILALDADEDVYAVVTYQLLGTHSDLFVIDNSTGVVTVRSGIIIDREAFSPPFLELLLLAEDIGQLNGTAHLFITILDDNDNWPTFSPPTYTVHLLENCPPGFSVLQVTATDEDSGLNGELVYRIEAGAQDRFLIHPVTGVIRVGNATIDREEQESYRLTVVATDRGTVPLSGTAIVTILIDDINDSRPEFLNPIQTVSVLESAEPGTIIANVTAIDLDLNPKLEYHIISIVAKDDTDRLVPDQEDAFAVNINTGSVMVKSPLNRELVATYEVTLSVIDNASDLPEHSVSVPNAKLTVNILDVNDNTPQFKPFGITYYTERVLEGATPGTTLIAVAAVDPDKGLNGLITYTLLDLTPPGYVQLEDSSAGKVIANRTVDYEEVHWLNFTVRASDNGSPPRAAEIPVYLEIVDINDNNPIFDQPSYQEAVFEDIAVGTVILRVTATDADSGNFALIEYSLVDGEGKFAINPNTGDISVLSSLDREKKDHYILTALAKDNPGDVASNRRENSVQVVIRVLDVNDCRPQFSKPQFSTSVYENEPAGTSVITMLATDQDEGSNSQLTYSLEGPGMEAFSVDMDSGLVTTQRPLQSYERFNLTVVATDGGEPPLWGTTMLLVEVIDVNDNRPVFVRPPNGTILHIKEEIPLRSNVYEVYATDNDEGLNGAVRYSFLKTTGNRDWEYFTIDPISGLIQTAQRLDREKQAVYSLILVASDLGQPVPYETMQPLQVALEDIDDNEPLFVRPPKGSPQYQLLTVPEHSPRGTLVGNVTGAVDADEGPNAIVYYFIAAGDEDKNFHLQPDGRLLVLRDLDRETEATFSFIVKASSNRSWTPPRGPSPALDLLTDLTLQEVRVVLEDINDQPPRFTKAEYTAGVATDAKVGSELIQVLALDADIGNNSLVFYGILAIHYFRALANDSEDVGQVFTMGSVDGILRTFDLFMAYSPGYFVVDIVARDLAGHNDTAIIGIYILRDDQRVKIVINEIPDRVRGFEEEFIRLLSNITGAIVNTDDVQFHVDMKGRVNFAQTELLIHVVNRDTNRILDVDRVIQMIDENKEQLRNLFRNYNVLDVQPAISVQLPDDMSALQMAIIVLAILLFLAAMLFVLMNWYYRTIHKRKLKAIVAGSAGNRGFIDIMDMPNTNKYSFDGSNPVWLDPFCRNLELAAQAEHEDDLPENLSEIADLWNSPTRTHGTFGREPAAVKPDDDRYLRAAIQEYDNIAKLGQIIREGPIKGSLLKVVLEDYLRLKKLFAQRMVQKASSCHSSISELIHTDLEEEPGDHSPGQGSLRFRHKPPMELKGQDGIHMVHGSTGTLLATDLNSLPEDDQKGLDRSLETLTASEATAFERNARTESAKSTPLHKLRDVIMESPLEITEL

Row | effect of a mutation on the interaction (pcd15_mouse Pcdh15) | effect of a mutation on the interaction (Cdh23, Q99PF4-1 [1]) | effect of a mutation on the interaction (Cdh23, Q99PF4-1 [2]) | Substance
1 | decreasing interaction strength |  |  | Cadherin-23 (Mus musculus), Q99PF4-1 D124G
2 | decreasing interaction strength |  |  | Cadherin-23 (Mus musculus), Q99PF4-1 L168G
3 |  | decreasing interaction strength |  | Protocadherin-15 (Mus musculus), Q99PJ1 I48A
4 |  | decreasing interaction strength | disrupting interaction strength | Protocadherin-15 (Mus musculus), Q99PJ1 R139G
